experiment: soluble on expression in E. coli; label from the status in PepcDB or PDB records

| Sequence | soluble on expression in E. coli |
| --- | --- |
| MSLNNVIFSQKLYDTAQMIVDGCMGDADPACQTACPMHTDVKQYVRMAGEGNFQGALDLIRSKLFLPQTLGRICAHPCEASCRRNTEFGQPISVAGIKRFVAEKMDNQDHWDLNIAPLTNKHIAIVGAGPAGAQAAIELRRQGHEVTIYEKLDVYGGMMRVGIPEYRLPRDVIDFEYSYLAMLGIKTQFGVEIGKDISFDTLRSEHDAVILAHGAHVGSIIPLPGHDNDGVFSAVEYLKEISETRQFPRACKRVMVIGGGDVAMDCARSSWRIGASDVYQCSLESLESLPASQIEIDESLEEGVEFNAGWGPVAIEHENGKVTGITIKKVLSIFDEQGNFAPQYSEESKTISVDTVVFATGQIVADITDGALEQTRGGRYVVDKQTLASSLEDVFVAGDACGGNIVIEAMALGRKAAMSVERFLTARPLTEDRDFEQEYSYSSRLDVPLPKGTVDTPRLHGELRDAEERKQDFAQVDLGFTEEQIKQEASRCLQCSCKLCMTECIMMNDFSDCPKTIFSDFVNNKSMDPLLAYSCNACDQCTIVCPKDFPMKEMFLGARTDFVKANNGESPMPGHKAINMHQKLGFSKIFTMAKRAVSTKEGHHHHHH | not soluble |
| MSLNNVKLLIAGSAFFAMSAQAADRVSIDVKVTLEAAACTPILSNGGVVNFGSHSVNRLSTQHYTQIGTRNINMTITCESATGIAITARDTRMDSMTTGKDSGGQSGVKYTLNGGGYISQTTRLFGLGKTKDNKNIGSYAVLIDSNNISASNGSQTLAVSIAGADAVITGQKRAWQTLTAYPLAVDQSYYYTFVKPGETTPTPVTNAIIPLQVSASIANDLGGSEKIELDGKAVISVVYLEGHHHHHH | not soluble |
| MSLNPASPFATLTDRIDWQKVDGLVPAIVQDFQSSQVLMMGYMNPEALQKTLDTQQVTFFSRSKQRLWTKGETSGHVLQLKNIALDCDQDTLLVKVNPIGPTCHTGTVTCWDGDAQEESQMVWLHQLEQLLAERKNADPSSSYTASLYARGTKRIAQKVGEEGVEVALAATAGDKEELICESADLMYHLLVLLQEQGLAMNDVINKLKERHKEGHHHHHH | soluble |
| MSLNPSGKYQVKILGIEDYQALTACQSACPLGTDTKRYVRAITEGDYEKAFLIARQTNPLVSVCSRVCTAPCEKSCRKGEQGHPVDIRALKRFACDKHGVTSPRAVAGRLEEISRQNGGVGDRTGNHILTMAAVQKAGAAATSRKPAPRVAIIGSGPTGLSAAHDLALLGYGVTIFEAAPYAGGMLRTGIPAFRLPKDVLQQEIDAILNLGVELKLNSPIGEDLTLADLKAQGYESVFITIGLQDPLRILNIEGTDLAGIYSGVEYVRDHEKIRLGKRCLVIGGGGVAIDCAQHAVRQGAEQVMIACLESWETMPASLTEREDAQEEGIVFHPALGPRRFMGHNGHVARAEFLQVSSVFDSEGRFAPTFVPDSTTTLEVDSVILAVGQASTAPSLAGLAGLDLTPNGLIKAAEDMSTNLPGVFAGGDVRWRFTRNATDAIADGQKAARAIHGYLSGHTPQVIRKGFMRPVSPDFENTRCDTIAPVPIPKRDAGERVRTKEEITIGFGEAEAREQAARCRRCNIQTVFERSRCLRCGTCVDTCVNGALRIVRLADIQGDEDVAKLTDALKKSAQTRSKAMTAIIKDESRCASCGMCARRCPGGAITMAEFYCQEEWEEGHHHHHH | soluble |
| MSLNRDQSDLHIDELLADPFGGNIEIPGSEAVKAEKEQVRLVDVLPEENKEKAIQLAGQIDHKNMQSIVLYGSQAQSKLLNFSHDMINHVQKKDVGEIGEILGELMKKLEQVNPDDLQSKKKGFLARMFGRVSSSLQEVLSKYQKTSVQIDRISLKLEHSKNALISDNKLLEQLYEKNKEYFAALNVYIAAGELKLEELKTKTIPELKQQAESSDHNQMAVQEVNDLIQFADRLDKRVHDLLLSRQITIQSAPQIRLIQNTNQALAEKIQSSIVTAIPLWKNQVAIALTLLRQRNAVDAQQKVSDTTNELLLKNAELLKTNTIETARANERGLVDIDTLKKVQESLISTLEETLTIQEEGRIKRRQAEEELMMMEGDLKQKLITIKEREGHHHHHH | soluble |
| MSLNRKHETVSEFVRHLPCENCGSSDANSIYTDNHQYCFACEHYVHGDGETPTTGGRTKRMEGLISGEFKPLMKRKLTLETCRKFGYFVSEVRGRLVQVAPYFDNSGVMVAQKLRDQDKGFAILGDGAKLTLFGQNLWASGGKKIVVTEGELDAMSVSQVQNNKWPVVSLPNGAPAARKAIQRNIEYLESFEEVILMFDMDEPGREAAQECAELFSPGKCKIATLSMKDANELLVAGREQEIVTAIWNAKLYRPDGVVNVRDLLEEIRKALVMGLPWFLDPLTQLTYGRRYGEVYGLGAGTGVGKTDFLTQQIAYDIQVLGERVGTIFLEQKPTETAKRVAGKIAGKRFHVPKDTAGWTDEELDAAVDALGENLVMYDAFGETEWDIVKRKVRYMAVSEGIKLIYIDHLTAMADTADEKGSLEQIMKEMAGLANELGIIITFISHLTTPEGKPHEEGGRVTIRHFKGSRAIGFWSYFMFGLERDQQAEDPVVRQTTTFRILKDRCTGQATGEVLYLAYDRDTGLLSLTEAPEPSSPFKDESEGHHHHHH | soluble |
| MSLNRNHPANGWPLALLLAATLALHGCNEPTAATAAPANTTRHGDYTPLTVQHKLGTTVISQLPQRTVALDMNEVDFLDQLGVPVAGMPKDFVPDFLARYKDAGQTADVGSIVQPNLERVHAARPDLILITSLQANHYDELSEMAPTLHFDVDYRDSETGHVAMVRQHLLSLGQVFGKQGLAQRKADALEAKLAQARSVTRDRPERALVVLHNNGAFSAFGVQSRYGFIFNDLGVKPATTTLDTGLHGQPISSEFIQQANPDILYVVDRTAVMEHRPMMTADTLDNPLLRQTNAWKHGRVVFVDPQAWYVTAASPTSLALIADDVIRGYQDEGHHHHHH | soluble |
| MSLNSMKDAFNREIDYVRLSLTDRCDLRCTYCMPATGLCFLKKEQLLTDDEIIFLLRILAKEDIKKVKLTGGEPLVRPNLLSLIKRIKQISGIEKVTLTTNGMKLAREAQGLKEAGLDGINISLDTLDPEEFREITRVGQLRNVLAGLEQAIDVGLPNIKINTVARKELSEATIVELAEIAKKETVHLRFIEMMPIGLGKEHPGKQQEEVEAILTKYYGTLQPYQKPLGNGPASYYALKDFKGKIGFISALGHCFCETCNRIRITADGHLKTCLHSADGYSLKEALAMEQTAELLGIIKSGIACKPEKHLFLEQQGEQRFMSQIGGEGHHHHHH | not soluble |
| MSLNVLSVSSEIYPLIKTGGLADVVGALPIALEAHGVRTRTLIPGYPAVKAAVTDPVKCFEFTDLLGEKADLLEVQHERLDLLILDAPAYYERSGGPYLGQTGKDYPDNWKRFAALSLAAARIGAGVLPGWRPDMVHAHDWQAAMTPVYMRYAETPEIPSLLTIHNIAFQGQFGANIFSKLALPAHAFGMEGIEYYNDVSFLKGGLQTATALSTVSPSYAEEILTAEFGMGLEGVIGSRAHVLHGIVNGIDADVWNPATDHLIHDNYSAANLKNRALNKKAVAEHFRIDDDGSPLFCVISRLTWQKGIDLMAEAVDEIVSLGGRLVVLGAGDVALEGALLAAASRHHGRVGVAIGYNEPLSHLMQAGCDAIIIPSRFEPCGLTQLYALRYGCIPVVARTGGLADTVIDANHAALASKAATGVQFSPVTLDGLKQAIRRTVRYYHDPKLWTQMQKLGMKSDVSWEKSAGLYAALYSQLISKGHEGHHHHHH | soluble |
| MSLPMSLTIKLFLMFLLIESSIAKQKPDLDHVNVDMSEIDYSSFFKQMIEGWEREANEKYPFRPDLNNDDSSYFLQSRDQVYVNRSFFVQGKAQAYIRQWNNWKPYRDLGNKIGVLWPTQDNDCPKIEAMNPLTYMIHGLSRRYNILPLLK | soluble |
| MSLQEIKGLSFYHQDWEVYCSNTGTCRAAGYQSDDGSQQPASILLTREAGSKQPVQAEFALAGDDQETFAANKIKNIRFYVNGKDLGTVSVKGVDSPLMGKLSTAQVNGLLQQATQKVDIVFKNNHYVWKISDSGMTAALLKVDDFQKRIGTVGALVKKGKSDDSKVLMPQPKLVIKKVKTADQPYLTLNPKNKQYASLYKLLMAAQPTPKEDGFCEGVYDFDSDAITAQSIELYKLTNNKVLATTLCWRGAYNEGYGAWVLNQSLTGPATYITQSASDIASGIISSAQKGRGIGDCWMSQSWIWNGQKYVQNQDMWTGMCKGLAAGGVWELDQIEAVVKEGHHHHHH | soluble |
| MSLQHNGHSYTVEGLINDSTLNGQTLYISRYDDGMKVDSTQVTNGQFKFTGKADIPCFCRIDAGREYANFILEGGNIQVNVLTHNDPKGTPMNEEYTHISDKTSELVTELRKRHAAIEQQTEDKSEQLRLKKEYADTYWHPTYTRLYKDMFMKNPDNALGEFAIRELAMCALPEEMDTIFAASGPWLKSLSVYHRIEKQFQGMKATAVGQKFTDFSGKTIDGAASSLSDFVGKGQYTLVDFWASWCGPCRSESPHIAELYNTYKDKGLTVLGVAVWDKPENTKKAIKELNIDWPQIIDTGMTPMDLYGVKGIPFILLFGPDGTIIARDLRGEGMKNKVAEVLNNKEGHHHHHH | soluble |
| MSLQKFSDEQRSQIETIIKEYLVSHPEVLEEASEELGKRQAAAQAEKHQQAIKDNADIIYNSPRGVTVGNKNGDVTMVEFFDYNCGYCKRAMTDMMELMKDDPNLKVVLKEFPVLGPPSVEAAQVAIAVRMQDPTGKKYLDFHQKLLGGRGQADKARALAAAKDAGLDPAKIEKDMNSPEVRATIEESFKLAESMGMNGTPSYVIGKQVVVGAVGLDTLRQKINTARCGKDKCEGHHHHHH | soluble |
| MSLQMERRGISALPLHYGHPPEYLFKRAVKLSGIMAEIIVDTYGQGELIRRLADPFWFHSLSLVTGFDWNSSGTTVFTLSALKEYLSTRDLGVKVCGGKASAMADMRADLLSSVETGILKEDDKEYVYENARRIAKIDNSLLQDGYDLYMQFVVVSDRGRHAVIQQGMNSEDRMARRYHWLIGNERVDVEGRYGLSADKTSLNVLDLSATESRDNRSAIVASVREGEVWRFRSGAQSTLDNFSLPFLDLSGRVNWKKLRDLYEYGVDDFEKIYMEKGIGKSTLRALSYIAEVIYGPKASFRDPVKFSFAVGGKDGIPKPVNTYDYDRAIEFFSDLIREKDLNVREKETIARSLAHLSQMKTNFYSEGHHHHHH | soluble |
| MSLQNTVPSETPSPATPSPTSTVNLSDVSSDYWARPFIQAMADNNVIAGFPDGSFRPNQAVTRAEFAALIQKAFPNQNRVRQLSAGGFRDVPAGYWAISPIQYAYETGFLAGYPGNVFSPNQQIPKVQAIVAMTSGLGLTASNTGASTDLSTYYTDASSIPQYAIASVTTATQSNIVVNYPDVKQMNPQQPLTRAEVAALLYQALAKQGRVQPIASNLPASQYIVGGTEGHHHHHH | soluble |
| MSLQRGAGQYFAGKRCFVTGAASGIGRATALRLAAQGAELYLTDRDRDGLAQTVCDARALGAQVPEHRVLDVSDYQDVAAFAADIHARHPSMDVVLNIAGVSAWGTVDQLTHDQWSRMVAINLMGPIHVIETLVPPMVAAGRGGHLVNVSSAAGLVGLPWHAAYSASKYGLRGLSEVLRFDLARHGIGVSVVVPGAVKTPLVNTVEIAGVDRDDPRVNRWVERFSGHAVTPEKAADKILAGVTRNRYLVYTSADIRALYAFKRYAWWPYTLVMRRVNVFFTRALRPGEGHHHHHH | soluble |
